Laboratory results taken from patent US20210206825A1 (published 2021).
Positions count from the first letter of the chain named.

B1: ECB15 (SEQ ID NO: 145) (designed binder)
chain: LPAPKNLVVSEVTEDSARLSWDDPWAFYESFLIQYQESEKVGEAIVLTVPGSERSYDLTGLKPGTEYTVSIYGVHNVYKDTNMRGLPLSAIFTTAPAPAPAPAPLPAPKNLVVSRVTEDSARLSWTAPDAAFDSFWIRYFEFLGSGEAIVLTVPGSERSYDLTGLKPGTEYVVNIMGVKGGKISPPLSAIFTT
notes: kept as two constructs; also called ECB15 without Met; not shown: C-terminal poly-histidine tag
B2: A3 I79S (designed binder)
chain: B1 chain with I183S
notes: In the context of ECB15; built as m66; not shown: C-terminal poly-histidine tag
B3: A3 F36S (designed binder)
chain: B1 chain with F140S
notes: as for B2
B4: A3 V68S (designed binder)
chain: B1 chain with V172S
notes: as for B2
B5: A3 L39S (designed binder)
chain: B1 chain with L143S
notes: as for B2
B6: A3 G40S (designed binder)
chain: B1 chain with G144S
notes: as for B2
B7: A3 M72S (designed binder)
chain: B1 chain with M176S
notes: as for B2
B8: A3 K78S (designed binder)
chain: B1 chain with K182S
notes: Tested in the context of bispecific ECB15; not shown: C-terminal poly-histidine tag
B9: A3 P81S (designed binder)
chain: B1 chain with P185S
notes: as for B2
B10: A3 F38S (designed binder)
chain: B1 chain with F142S
notes: as for B2
B11: A3 W32S (designed binder)
chain: B1 chain with W136S
notes: as for B2
B12: A3 N70S (designed binder)
chain: B1 chain with N174S
notes: as for B2
B13: A3 R34S (designed binder)
chain: B1 chain with R138S
notes: as for B2
B14: P53A1R5-17 (designed binder, not shown: small tags and cut ends)
chain: LPAPKNLVVSEVTEDSLRLSWADPHGFYDSFLIQYQESEKVGEAINLTVPGSERSYDLTGLKPGTEYTVSIYGVHNVYKDTNMRGLPLSAEFTT
B15: P54AR4-83 (designed binder, not shown: small tags and cut ends)
chain: B14 chain with A22D, H25W, G26A, D29E
B16: P54AR4-73 (designed binder, not shown: small tags and cut ends)
chain: B14 chain with A22T, D23W, H25Y, G26A, F27D, Y28L
B17: P54AR4-17 (designed binder, not shown: small tags and cut ends)
chain: B14 chain with A22T, D23Y, P24D, H25R, G26D, F27G
B18: P54AR4-48 (designed binder, not shown: small tags and cut ends)
chain: B14 chain with A22D, H25R, D29E
B19: P54CR4-31 (designed binder, not shown: small tags and cut ends)
chain: LPAPKNLVVSEVTEDSLRLSWTAPDAAFDSFLIQYQESEKVGEAINLTVPGSERSYDLTGLKPGTEYTVSIYGVLGSYVFEHDVMLPLSAEFTT
B20: ECB95 (designed binder, not shown: small tags and cut ends)
chain: MLPAPKNLVVSEVTEDSARLSWDDPWAFYESFLIQYQESEKVGEAIVLTVPGSERSYDLTGLKPGTEYTVSIYGVHNVYKDTNIRGLPLSAIFTTAPAPAPAPAPLPAPKNLVVSRVTEDSARLSWTAPDAAFDSFWIRYFEFVGSGEAIVLTVPGSERSYDLTGLKPGTEYVVNILGVKGGSISPPLSAIFTT
B21: ECB97 (designed binder, not shown: small tags and cut ends)
chain: B20 chain with V144L, G178S
B22: ECB15 (designed binder, not shown: small tags and cut ends)
chain: B20 chain with I84M, V144L, L177M, S183K
B23: ECB96 (designed binder, not shown: small tags and cut ends)
chain: B20 chain with G145S, S146K, E148D
B24: ECB109 (designed binder, not shown: small tags and cut ends)
chain: B20 chain with W26H, V144L, G178S
B25: ECB106 (designed binder, not shown: small tags and cut ends)
chain: B20 chain with W26H, V144L, S183K
B26: ECB94 (designed binder, not shown: small tags and cut ends)
chain: B20 chain with V144L, S183K
B27: ECB107 (designed binder, not shown: small tags and cut ends)
chain: B20 chain with W26H
B28: ECB108 (designed binder, not shown: small tags and cut ends)
chain: B20 chain with W26H, G145S, S146K, E148D
B29: P114AR5P74-A5 (designed binder, not shown: small tags and cut ends)
chain: LPAPKNLVVSRVTEDSARLSWTAPDAAFDSFWIRYDEVVVGGEAIVLTVPGSERSYDLTGLKPGTEYYVNILGVKGGSISVPLSAIFTT

These binders were tested against T1, recombinant human c-Met Fc chimera (human, UniProt P08581 16-932) (assay: SPR).
T1 construct: also called c-Met-Fc fusion protein; c-Met extracellular domain; not shown: Fc
Excerpt: Serine was chosen to decrease the hydrophobicity of the resulting mutants. […] Fold change indicates fold change of the KD value of a variant when compared to the parent P114AR7P95-A3.

Kd [nM]	binding result	Fold Change of KD vs parent [fold]	koff [s⁻¹]	kon [M⁻¹ s⁻¹]	Binder
0.4					B1
	no binding				B2
27.2		68	0.00512	188000	B3
3.6		9	0.0012	329000	B4
2.7		6.75	0.00127	475000	B5
1.7		4.25	0.00032	185000	B6
	no binding				B7
0.3		0.75	0.00015	440000	B8
1.7		4.25	0.000536	321000	B9
717		1790	0.0323	45100	B10
29.8		74.5	0.0086	289000	B11
5.9		14.8	0.00249	425000	B12
	no binding				B13

What follows are binders tested against T2, human EGFR on cells (human, UniProt P00533 25-1210) (assay: cell-based or functional assay).

Phospho-EGFR IC50 (A431 cells, Tyr1173) [nM]	Binder
> 2500	B14
18	B15
141	B16
184	B17
170	B18
179	B19

Target: T2, human EGFR on cells
Test: cell-based or functional assay
Remark: another data set of the same source

pEGFR inhibition in H292 cells (IC50) [nM]	Binder
13.6	B20
16.6	B21
4.2	B22
24.7	B23
432	B24
367	B25
5.1	B26
812	B27
814	B28

Each binder was assayed against human c-Met on cells (human, UniProt P08581 25-1390) (assay: cell-based or functional assay).

inhibition of c-Met phosphorylation in NCI-H292 cells (IC50) [nM]	Binder
610	B29
